According to the DeepSol protein solubility set:

test: soluble on expression in E. coli; label from the status in PepcDB or PDB records

Row | Sequence | soluble on expression in E. coli
1 | MKFLITGGAGFIGSNLAFALQERYPEAKIYVLDNFSSGHFKNLIGFKGQVITGDISDPSLWDYVRKNFHFDVIFHEAAITDTTVEDQYFMMKTNADSFRYILDLAVEWNAKVIYASSAGVYGNSPPPMREDKGLEPENIYGFSKLMMDHIAMDYMERYPEMNIVGLRYFNVYGPREDYKGKTASMIYQLAVKMIKGERPRLFKWGEQRRDFVYIKDVIKANLLALEKNVSGIFNVGTGRARSFNEIVSILNKELGTNYEIEYFDCPYDFYQKFTEADLTKIREALGYEPEYSLEEGIKDYLPYIIKRVKK | soluble
2 | MVTEAMKAKAEVYHGDKTCREKFGSLLSEIGLPNRLLSNKEIKECGYVKDTGFVWLKHKEKKKEDQKRRYQDLLRFDNVVVCFEDEVTAYFEPNRIKKLTGVKAKEFMVWISLGEIQVNRSSGLITFKTEVGLLSKSLPLSVFEDVHGDDHDLKEKPKKELKLNKTKIYLY | not soluble
3 | MSSHPPIRSYVLRQGYFSNAQRHAYESLLPRYGIPLTEEPVDLDSIFGRTAPGILEIGSGMGETTAEIARQHPEKDFIAIEVHAPGIGSLLGQIEKHRLTNLRIIPHDAKLVLQQMFTSESLDGIHIFFPDPWPKARHHKRRLIQPDFVSLLCDRLKPGGYLHIATDWEDYATHILHVLRSEERFVNTAVDYAARPAYRPLTKFEQRGMKLGHTIRDIIFTRTALEHHHHHH | not soluble
4 | SLAPQPLKKGEKAIDVASVVRQKMPASVKDRDAWAKDLATTFESQGLAPTLENVCSVLAVAQQESNYQADPAVPGLSKIAWQEIDRRAERMHIPAFLVHTALKIKSPNGKSYSERLDSVRTEKQLSAIFDDLISMVPMGQTLFGSLNPVRTGGPMQVSIAFAEQHTKGYPWKMDGTVRQEVFSRRGGLWFGTYHLLNYPASYSAPIYRFADFNAGWYASRNAAFQNAVSKASGVKLALDGDLIRYDSKEPGKTELATRKLAGKLGMSDSEIRRQLEKGDSFSFEETALYKKVYQLAEAKTGKSLPREMLPGIQLESPKITRNLTTAWFAKRVDERRARCMKQ | soluble
5 | SSAMGAGPDHLFNLRNNFYLGAYQTAINNSEIANLSPENAVERDCLVFRSYIALGSYQLVISEIDESAATPLQAVKLLAMYLSTPQNKESTISSLKEWLADSTIGNNDTLRLIAGIIFMHEEDYNETLKHTHAGGTMDLYALNVQIFIKMHRAEYAEKQLRVMQQIDEDHTLTQLASAWLNLAVGGSKIQEAYLIFEDFSEKYPMTCLILNGKAVCCMQMGNFDEAETLLLEALNKDAKDPETLANLVVCSLHVGKSSSRHLSQLKLSHPEHILVKRVSSAEDNFERAVQLVA | soluble
6 | MGSDKIHHHHHHMPEKLDTVLGYLKEFPDYYKYVTKKTYTVNEKIIFEDEKAKSIFFIVEGYAAVELEDNLRKTNYISIFVLPYNVLGIDAFSSYPKKKHSITVMSEHLMLYKIDADFLLNILSIKPDVNDFLLTSIADVFARHYALLGMIAKTPKERIYMALENLAVEMGTEDEERNEIVLPNFINQSVLARYCRTTQPNISNLLTELVEEEFLVNKKSPYRIDKDSLDI | not soluble
7 | MGSDKIHHHHHHMSSIFSLEGIKALGPDELREIQRGGLPVVIHFGDAGDDFLAYVSDHATEWLGTDAIRTVDARRFMEDKEWKAPMLTSEVLPKTIIVDPARWGDSFADKVAALDMTAFYSSNPVLLDYNDAFEVVFLFSTFYHHTMVSVTDFCNLRCRGCSFHGDDSRYDFAASRGKTERQELKEEDYYLFLDQRKPGDDLLFCGTGELFVSKKAMPYIREAIRRGLHVRILTNGMLVDDKVARELVELGVGAVLFSIDGHTKEIVESIRLGADYDRILANLRNLMRVRDEAGSGMIIGVQSGWFDEVKTRKDEILEFWKEFGIDTFSFFAEQVGWFQCIPMHEDKVMPVKTHACFNSLITPVLMTNGYVAPCTGNYQAEWSSLSSSWMKHISEAPFDEIIRYYRKMRTDPASPYRQRCAMCIGRLSTYVNSEYVSAYAEGYRFSERKSDKEAAFVKFSPQDEKTGFTLKKLWNRLLRR | not soluble
8 | DSLVFVQTDKSIYKPGQTVKFRVVSMDENFHPLNELIPLVYIQDPKGNRIAQWQSFQLEGGLKQFSFPLSSEPFQGSYKVVVQKKSGGRTEHPFTVEEFVLP | soluble
9 | MGCMNRENALHIVKQQMHEKRYIHTIGVMETAIELAKLYGVDEKKAEMAAIFHDYAKCRAISEMEEIIKREDLPKDLLCYNKELWHAPVGAYLVEKEVGITDSEILQAITYHTSGHENMTMLDKVIYVADYIEPGRKFPGVEEARKLAYTDINQALLFALKRTIQFLMEKDQTIYPLTFQTYNAVIKEEMSK | not soluble
10 | ADQRIKVAKPVVEMDGDEMTRIIWQFIKEKLILPHVDVQLKYFDLGLPNRDQTNDQVTIDSALATQKYSVAVKCATITPDEARVEEFKLKKMWKSPNGTIRNILGGTVFREPIICKNIPRLVPGWTKPITIGRHAHGDQYKATDFVVDRAGTFKIVFTPKDGSSAKQWEVYNFPAGGVGMGMYNTDESISGFAHSCFQYAIQKKWPLYMSTKNTILKAYDGRFKDIFQEIFEKHYKTDFDKYKIWYEHRLIDDMVAQVLKSSGGFVWACKNYDGDVQSDILAQGFGSLGLMTSVLVCPDGKTIEAEAAHGTVTRHYREHQKGRPTSTNPIASIFAWTRGLEHRGKLDGNQDLIRFAQTLEKVCVETVESGAMTKDLAGCIHGLSNVKLNEHFLNTSDFLDTIKSNLDRALGRQ | soluble
11 | MGSDKIHHHHHHMIEYYNFNKSELEKHSRIPLIVKKNNEEIFISLALEMVELIKENNEKNEKTVIICPVGPVGQYPHFVRLVNQFKIDLSNVWFINMDEYLLEDLHWIDVVHPLSFRGFMQKNVYSQIHPTLIMSEEQRIFPDPLDIDSISNKIKELGKIDLCIGGIGLNGHIAFNEPDSTLTVQEFLKLGSRVLPISVETKVMNGLTVLKGAVEEVPNYCVTIGMSEIFQAKKIRLAVFRDWHHAVIRKTVCSKPDTGFPSTLMQIHTNCSIYLNESLAN | not soluble
